Experimental data taken from the supplement of paper PMC9170038.

Test system: MS2 coat protein
Experiment: apparent KD of MS2 coat protein; designed switch direction (-1 OFF switch, 1 ON switch): -1; higher = weaker reporter binding
In short: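 An oligonucleotide input, 200 uM small-molecule ligand, or no input was present during titration of SNAP-549-labelled MS2 coat protein, which was doubled from 0.7 or 1.5 nM to 3 µM. Designed RNA switches had been transcribed on Illumina chips by stalled E. coli RNA polymerase. Apparent KD per design is the median over clusters of curves fitted to normalised cluster fluorescence.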

[1] = input ligand: microRNA oligo, concentration not stated

## UUAAAUCAUGUAGGAUAUGCGUAGCGAAGCUAUGCAGAAGGACAUGAGGAUCACCCAUGUGCUUGCGUCCGCGUACGGAUGCUA [Mat - Exclusion NG 1 - Mod of JL - D66] (Eterna round: R96, puzzle: Exclusion NG 1)
Input ligand: FMN 200 uM
  apparent KD of MS2 coat protein: 202 nM
[1]
  apparent KD of MS2 coat protein: 107 nM
Input ligand: none
  apparent KD of MS2 coat protein: 134 nM

## CAGUCCGUUUGAGGAUAUCUCUGGAUCGCCAUGAGAGAAGGCAAACAUGAGGAUCACCCAUGUGGUACCGACUCAACGUCGACA [Eternabot solution 10] (Eterna round: R96, puzzle: Exclusion NG 1)
Input ligand: FMN 200 uM
  apparent KD of MS2 coat protein: 20.7 nM
[1]
  apparent KD of MS2 coat protein: 11.6 nM
Input ligand: none
  apparent KD of MS2 coat protein: 16 nM

## UCUCCACAUGAGGAUCACCCAUGUCAGGAUAUGCUGCGGCUACUAAAAGAGAAUUGCGGCAGAAGGGACACGCC [EX1 B.25] (Eterna round: R97, puzzle: Exclusion 1)
Input ligand: FMN 200 uM
  apparent KD of MS2 coat protein: 68 nM
Input ligand: none
  apparent KD of MS2 coat protein: 20.2 nM

## ACAAGCUUUUAGAUUUUCAACAUGAGGAUCACCCAUGUUCGUCUUAUGCUCGGGCUUGGGCGGUGUCCGGGUUUGGG [JL TOV1 3.78 sellena mod] (Eterna round: R97, puzzle: Sensor, turn-off variant 1)
Input ligand: FMN 200 uM
  apparent KD of MS2 coat protein: 37.1 nM
Input ligand: none
  apparent KD of MS2 coat protein: 39.2 nM

## AGCUGUGGCCGAGGAUAUCUAACAAUCCCAACCGAAAUAUAAUCGGACAUGAGGAUCACCCAUGUAGAGAAGGCGGUCUCAGCA [Eli eng2 - 073] (Eterna round: R96, puzzle: Exclusion NG 2)
[1]
  apparent KD of MS2 coat protein: 137 nM

## GCGUAGUAUGUAGGAUAUCGGUCAGUUUCUGAUCGAGAAGGACAUGAGGAUCACCCAUGUAAAACGCCCGCUUUGUGGGUACGC [JL ENG1 3.59] (Eterna round: R96, puzzle: Exclusion NG 1)
Input ligand: FMN 200 uM
  apparent KD of MS2 coat protein: 55.4 nM
[1]
  apparent KD of MS2 coat protein: 17.6 nM
Input ligand: none
  apparent KD of MS2 coat protein: 22.4 nM

## GUUAAGGUAGGAUAUACGAUAAUAUAGGGUAGAGAUAUAACACAUGAGGAUCACCCAUGUAGAAGGACCAAUUG [Mat - Exclusion 2 - Mod of my Tesla design - D55] (puzzle: Exclusion 2)
Eterna round: R95, input ligand: microRNA oligo, concentration not stated
  apparent KD of MS2 coat protein: 26.2 nM

## AGCGAAGAGACAGGAUAUGAGAAUAGAUAGAACUCAGAAGGGUCACAUGAGGAUCACCCAUGUAAAGUCUUGAGGCUGCGUGGU [Prohibition 9 - Jieux - Exclusion NG 1] (Eterna round: R96, puzzle: Exclusion NG 1)
Input ligand: FMN 200 uM
  apparent KD of MS2 coat protein: 141 nM
[1]
  apparent KD of MS2 coat protein: 50.7 nM
Input ligand: none
  apparent KD of MS2 coat protein: 71.9 nM

## CACAACAGAGGAUAUACAUGAGGAUCACCCAUGUGUUCCAGCUAGGAGACUAGCAAGUGUAGAAGGCUGUUGUG [Mat - Exclusion 3 - JL Mod - D10] (Eterna round: R97, puzzle: Exclusion 3)
Input ligand: FMN 200 uM
  apparent KD of MS2 coat protein: 269 nM
Input ligand: none
  apparent KD of MS2 coat protein: 501 nM

## AAGCUGUCAGGAUAUCGUUAAUUUAGUUGUUUGUAUUAGUUCGAGAAGGGACAUGAGGAUCACCCAUGUAUGAA [Ex4 #41] (Eterna round: R97, puzzle: Exclusion 4)
Input ligand: FMN 200 uM
  apparent KD of MS2 coat protein: 62.7 nM
Input ligand: none
  apparent KD of MS2 coat protein: 31 nM

## UGUGUGUGAGGAUAUACAAUGCGCGCGCGAAAGUGUGUGUUACAUGAGGAUCACCCAUGUAGAAGGCGCGCGCG [-31, -27.8 kcal A 24%, 6,6bis] (Eterna round: R97, puzzle: Exclusion 2)
Input ligand: FMN 200 uM
  apparent KD of MS2 coat protein: 15.7 nM
Input ligand: none
  apparent KD of MS2 coat protein: 17 nM

## CACCGUUACAGAGGAUAUGGCACAUGAGGAUCACCCAUGUAAUAAAUGAGAAUUUCGGAUGUAUUCCAGAAGGCUGUAACCGGC [Ostricism 68 - Jieux - Exclusion NG 2] (Eterna round: R96, puzzle: Exclusion NG 2)
Input ligand: FMN 200 uM
  apparent KD of MS2 coat protein: 41.2 nM
[1]
  apparent KD of MS2 coat protein: 19 nM
Input ligand: none
  apparent KD of MS2 coat protein: 35.6 nM

## GGAUCACAUGUCAGGAUAUGCAGGUCCUUGGAUCUGCAGAAGGGACAUGAGGAUCACCCAUGUCAUGAAGAUCC [Mat - Exclusion 4 - Eli Mod - D51] (Eterna round: R97, puzzle: Brourd's mod of Exclusion 4)
Input ligand: FMN 200 uM
  apparent KD of MS2 coat protein: 945 nM
Input ligand: none
  apparent KD of MS2 coat protein: 145 nM
